Measured values from paper PMC6141180 (2018).
One block for each binder: values may come before it.

Experiments:
[1] = target: T1, p38α (MAPK14), nonphosphorylated (mouse, UniProt P47811 1-360); experiment: FP; displacement of fluorescein-labeled MKK3b peptide
[2] = target: T1, p38α (MAPK14), nonphosphorylated; experiment: ITC
[3] = target: T2, dual (pThr180, pTyr182) phosphorylated p38α (mouse, UniProt P47811 1-360, phosphothreonine at 180, phosphotyrosine at 182); experiment: ITC; p38α dually phosphorylated; TAB1 pSer423
[4] = target: T2, dual (pThr180, pTyr182) phosphorylated …; experiment: ITC; p38α dually phosphorylated

T1 sequence (P47811 whole entry): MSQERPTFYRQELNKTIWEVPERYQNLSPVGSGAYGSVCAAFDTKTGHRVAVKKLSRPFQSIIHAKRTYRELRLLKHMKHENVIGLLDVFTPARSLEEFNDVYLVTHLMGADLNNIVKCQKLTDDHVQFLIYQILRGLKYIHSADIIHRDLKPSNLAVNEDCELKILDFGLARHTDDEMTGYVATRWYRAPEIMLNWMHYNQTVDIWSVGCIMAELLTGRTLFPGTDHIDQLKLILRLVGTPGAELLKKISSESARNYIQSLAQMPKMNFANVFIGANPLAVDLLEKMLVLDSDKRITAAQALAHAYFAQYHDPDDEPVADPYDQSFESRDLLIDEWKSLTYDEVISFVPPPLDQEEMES
T2 sequence (P47811 whole entry): as above

IC50 [1]: 15000 nM
Binder: Ac-GKSKRKKDLRISCMSKP-NH2 [MKK3b peptide, unlabeled]

Kd [2]: 1500 nM
B1: TAB1 (residues 1–438) (domain or fragment)
chain: MAAQRRSLLQSEQQPSWTDDLPLCHLSGVGSASNRSYSADGKGTESHPPEDNWLKFRSENNCFLYGVFNGYDGNRVTNFVAQRLSAELLLGQLNTEHTEADVRRVLLQAFDVVERSFLESIDDALAEKASLQSQLPEGVPQHQLPPQYQKILERLKALEREISGGAMAVVAVLLNSKLYVANVGTNRALLCKSTVDGLQVTQLNMDHTTENEDELFRLSQLGLDAGKIKQMGVICGQESTRRIGDYKVKYGYTDIDLLSAAKSKPIIAEPEIHGAQPLDGVTGFLVLMSEGLYKALEAAHGPGQANQEIAAMIDTEFAKQTSLDAVAQAVVDRVKRIHSDTFASGGERAKFCPRHEDMTLLVRNFGYPLGEMSQPTPTPAPGGRVYPVSVPYSSAQSTSKTSVTLSLVMPSQGQMVNGSHSASTLDEATPTLTNQSPT

Kd [3]: 1700 nM
B2: TAB1 (residues 1–438) phosphorylated at Serine 423 (domain or fragment)
chain: B1 chain
modifications: phosphoserine at 423

Kd [2]: 2900 nM
Kd [4]: 2000 nM
IC50 [1]: 11000 nM
Binder: Ac-RVYPVSVPYSSAQSTSKTSVTLSLVMPSQ-NH2 [TAB1 (residues 384–412) peptide]
